In IntAct's records for PubMed 16537494:

B1: Epsin-1 (Saccharomyces cerevisiae), Q12518 (parent)
chain: MSKQFVRSAKNLVKGYSSTQVLVRNATSNDNHQVSKDSLIELAEKSYDSADFFEIMDMLDKRLNDKGKYWRHIAKALTVIDYLIRFGSENCVLWCRENLYIIKTLKEFRHEDDEGIDQGQIVRVKAKELTALLSDDERLNEERNMNIKGRNRKGRRRRGTGRSDENDDDLQRAISASRLTAEEDERRRKQDEDYETALQLSKEEEELKRLQDLQRMQQQQGQQQLQQPMYYDIFGNPITPEEYAQFQLQQQQQQQQQQLQQQPMYYDVFGNPITPEELAQFQQQQQLQEQQYLASMQQQQQAMSNNPFAKSEQSSSSPKRNQLVAASSPQQLQQQKQQEPLIQNRTGNQSMTDKYSKLNELLATGTGIDTFGNVGEARIPAQHTKTGTFINSQGTGYRQVSDDPNHNPFLNSQYTGLPSTSVVPTQTGYGFGNQSQQQSQNNGSNNRGYTLIDL
partner: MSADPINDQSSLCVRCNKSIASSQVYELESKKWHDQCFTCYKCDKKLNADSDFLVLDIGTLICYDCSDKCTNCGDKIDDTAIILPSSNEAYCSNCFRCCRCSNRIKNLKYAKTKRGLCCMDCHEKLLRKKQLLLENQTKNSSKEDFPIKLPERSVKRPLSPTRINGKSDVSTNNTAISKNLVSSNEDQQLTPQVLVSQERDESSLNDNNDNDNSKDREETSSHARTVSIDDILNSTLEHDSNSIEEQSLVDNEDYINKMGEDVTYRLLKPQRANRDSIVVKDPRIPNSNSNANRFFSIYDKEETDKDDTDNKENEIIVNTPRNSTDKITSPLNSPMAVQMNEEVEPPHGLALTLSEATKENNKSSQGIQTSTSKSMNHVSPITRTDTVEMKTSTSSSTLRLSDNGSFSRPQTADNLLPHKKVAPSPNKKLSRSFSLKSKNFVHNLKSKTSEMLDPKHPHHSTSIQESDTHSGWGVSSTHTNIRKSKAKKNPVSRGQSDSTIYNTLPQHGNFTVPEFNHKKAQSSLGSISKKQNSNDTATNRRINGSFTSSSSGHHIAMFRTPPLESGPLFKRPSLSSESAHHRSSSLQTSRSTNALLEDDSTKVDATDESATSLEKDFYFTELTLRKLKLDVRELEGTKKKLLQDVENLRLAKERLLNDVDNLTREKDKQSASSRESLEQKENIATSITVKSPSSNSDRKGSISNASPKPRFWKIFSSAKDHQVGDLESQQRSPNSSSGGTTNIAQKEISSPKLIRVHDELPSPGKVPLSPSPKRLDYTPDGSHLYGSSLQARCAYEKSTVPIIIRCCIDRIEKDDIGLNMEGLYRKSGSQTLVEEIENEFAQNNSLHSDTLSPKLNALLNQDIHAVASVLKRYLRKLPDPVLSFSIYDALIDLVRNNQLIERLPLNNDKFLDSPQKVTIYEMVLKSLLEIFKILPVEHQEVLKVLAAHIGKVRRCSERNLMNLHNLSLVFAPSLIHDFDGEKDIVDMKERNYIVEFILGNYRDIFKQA

Variants of: B1
Conditions: with rga2_yeast RGA2, Q06407

| effect of a mutation on the interaction | Variant |
| --- | --- |
| disrupting interaction strength | MSKQFVRSAKNLVKGYSSTQVLVRNATSNDNHQVSKDSLIELAEKSYDSADFFEIMDMLDKRLNDKGKYWRHIAKALTVIDYLIRFGSENCVLWCRENLRIIKDLKEFRHEDDEGIDQGQIVRVKAKELTALLSDDERLNEERNMNIKGRNRKGRRRRGTGRSDENDDDLQRAISASRLTAEEDERRRKQDEDYETALQLSKEEEELKRLQDLQRMQQQQGQQQLQQPMYYDIFGNPITPEEYAQFQLQQQQQQQQQQLQQQPMYYDVFGNPITPEELAQFQQQQQLQEQQYLASMQQQQQAMSNNPFAKSEQSSSSPKRNQLVAASSPQQLQQQKQQEPLIQNRTGNQSMTDKYSKLNELLATGTGIDTFGNVGEARIPAQHTKTGTFINSQGTGYRQVSDDPNHNPFLNSQYTGLPSTSVVPTQTGYGFGNQSQQQSQNNGSNNRGYTLIDL [Y100R;T104D] |
| disrupting interaction strength | MSKQFVRSAKNLVKGYSSTQVLVRNATSNDNHQVSKDSLIELAEKSYDSADFFEIMDMLDKRLNDKGKYWRHIAKALTVIDYLIRFGSENCVLWCRENLYIIKDLKEFRHEDDEGIDQGQIVRVKAKELTALLSDDERLNEERNMNIKGRNRKGRRRRGTGRSDENDDDLQRAISASRLTAEEDERRRKQDEDYETALQLSKEEEELKRLQDLQRMQQQQGQQQLQQPMYYDIFGNPITPEEYAQFQLQQQQQQQQQQLQQQPMYYDVFGNPITPEELAQFQQQQQLQEQQYLASMQQQQQAMSNNPFAKSEQSSSSPKRNQLVAASSPQQLQQQKQQEPLIQNRTGNQSMTDKYSKLNELLATGTGIDTFGNVGEARIPAQHTKTGTFINSQGTGYRQVSDDPNHNPFLNSQYTGLPSTSVVPTQTGYGFGNQSQQQSQNNGSNNRGYTLIDL [T104D] |

Variants of: B1
Conditions: with rga2_yeast RGA2, Q06407
Remark: another data set of the same source

| effect of a mutation on the interaction | Variant |
| --- | --- |
| disrupting interaction strength | MSKQFVRSAKNLVKGYSSTQVLVRNATSNDNHQVSKDSLIELAEKSYDSADFFEIMDMLDKRLNDKGKYWRHIAKALTVIDYLIRFGSENCVLWCRENLRIIKTLKEFRHEDDEGIDQGQIVRVKAKELTALLSDDERLNEERNMNIKGRNRKGRRRRGTGRSDENDDDLQRAISASRLTAEEDERRRKQDEDYETALQLSKEEEELKRLQDLQRMQQQQGQQQLQQPMYYDIFGNPITPEEYAQFQLQQQQQQQQQQLQQQPMYYDVFGNPITPEELAQFQQQQQLQEQQYLASMQQQQQAMSNNPFAKSEQSSSSPKRNQLVAASSPQQLQQQKQQEPLIQNRTGNQSMTDKYSKLNELLATGTGIDTFGNVGEARIPAQHTKTGTFINSQGTGYRQVSDDPNHNPFLNSQYTGLPSTSVVPTQTGYGFGNQSQQQSQNNGSNNRGYTLIDL [Y100R] |
